Experimental data: patent US20220372150A1 (ZHEJIANG DOER BIOLOGICS, published 2022)

B1: anti-PDL1 single-domain antibody 1D7, histidine-tagged (VHH)
VHH: QVQLVESGGGLVQPGGSLRLSCAASGRAFLTYAMGWFRQAPGKEREFVAAISWSGSSTYYADSVKGRFTISRDNAKNMVYLQMNSLKPEDTAVYYCAAKVSGATRDHLMTTYDYWGQGTQVTVSS
notes: not shown: C-terminal histidine tag
B2: anti-PDL1 single-domain antibody 1G10, histidine-tagged (VHH)
VHH: QVQLVESGGGLVQAGGSLRLSCAASGRPFITYAMGWFRQAPGKEREFVAAINWSGSITAYADSVKGRFTISRDNAKNAAYLQMNSLKPDDTAVYYCASKRTAVAPRALNDYDFWGQGTQVTVSS
notes: as for B1
B3: anti-PDL1 single-domain antibody 1D1, histidine-tagged (VHH)
VHH: QLQLVESGGGLVQAGGSLRLSCAASGGTFITYAMGWFRQAPGKDREFVAGISWSGSSTYYTDSVKGRFTISRDNAKNTVYLQMNSLKPGDTAVYYCAAKISGATREHLMTSYDYWGQGTQVTVSS
notes: as for B1
B4: anti-PDL1 single-domain antibody 5A8, histidine-tagged (VHH)
VHH: QLQLVESGGGLVQPGGSLRLSCAASGGTFITYAMGWFRQAPGKDREFVAGISWSGSSTYYTDSVKGRFTISRDNAQNTVYLQMNSRKPGDTAVYYCAAKISGATREHLRTSYDYGGQGTQVTVSS
notes: as for B1
B5: anti-PDL1 single-domain antibody 6F1, histidine-tagged (VHH)
VHH: QLQLVESGGGLVQPGGSLRLSCAASGRTFSTHSMHWFRQAPEKERVFVAAINWNGDSTYYADSVKGRFTISRDNSKNTVDLQMNNLKPEDTAVYVCAARPGAPSTIVAMLDYWGQGTQVTVSS
notes: as for B1
B6: anti-PDL1 single-domain antibody 1A7, histidine-tagged (VHH)
VHH: QLQLVESGGDLVQPGGSLRLSCAASGSIFSANLIDWYRQPPGKQRELVAVISSRGITSYADSVKGRFTISRDNAKNTVYLQMNSLKPEDTAVYYCHLFHTDGLGYWGQGTQVTVSS
notes: as for B1

Columns and labels:
[1] = target: T1, Mouse mPDL1-HSA fusion protein (mouse); experiment: ELISA on coated mPDL1-HSA, anti-his detection
T1 construct: The entry is the whole fusion of mouse PD-L1 with HSA; also called mouse PDL1
T1 sequence (chain, as listed by the source limits assumed): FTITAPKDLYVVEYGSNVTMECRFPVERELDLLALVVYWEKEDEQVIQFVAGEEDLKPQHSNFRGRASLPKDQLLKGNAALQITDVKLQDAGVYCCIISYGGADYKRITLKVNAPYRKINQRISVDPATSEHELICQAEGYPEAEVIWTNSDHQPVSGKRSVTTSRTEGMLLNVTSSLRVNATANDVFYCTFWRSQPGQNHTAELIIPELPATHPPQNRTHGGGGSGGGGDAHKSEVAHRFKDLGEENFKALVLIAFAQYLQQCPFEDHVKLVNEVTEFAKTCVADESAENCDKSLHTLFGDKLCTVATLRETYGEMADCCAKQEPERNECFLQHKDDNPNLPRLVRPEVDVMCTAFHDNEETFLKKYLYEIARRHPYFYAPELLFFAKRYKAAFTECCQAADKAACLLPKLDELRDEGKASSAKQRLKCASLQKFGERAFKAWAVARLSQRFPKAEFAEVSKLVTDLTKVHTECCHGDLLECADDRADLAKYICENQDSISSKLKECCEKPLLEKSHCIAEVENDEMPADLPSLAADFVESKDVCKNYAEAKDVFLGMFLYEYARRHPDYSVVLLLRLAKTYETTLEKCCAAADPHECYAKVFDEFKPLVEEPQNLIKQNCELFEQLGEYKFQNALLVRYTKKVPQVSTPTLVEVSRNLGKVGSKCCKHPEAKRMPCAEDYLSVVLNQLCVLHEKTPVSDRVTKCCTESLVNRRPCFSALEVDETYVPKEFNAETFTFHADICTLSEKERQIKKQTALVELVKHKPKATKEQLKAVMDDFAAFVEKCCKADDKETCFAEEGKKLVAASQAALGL
Experimental: Mouse mPDL1-HSA fusion protein (SEQ ID NO: 52) was coated onto a plate overnight in an amount of 200 ng/ well at 4° C., and blocked with 5% skimmed milk powder for 1 hr at room temperature. The purified histidine-tagged anti-PDL1single-domain antibody was diluted to 1 μg/mL, then added to the plate in an amount of 100 μL/well, and incubated at 37° C. for 1 hr. After washing three times with PBST, 100 μl/well of 1:5000 diluted mouse anti his tag antibody (R&D Systems Inc) was added, and the plate was incubated at room temperature for 1 hr. After washing with PBST, 100 μl/well of 1:10000 diluted HRP-Goat anti mouse IgG antibody (Thermo Scientific) was added, and the plate was incubated at room temperature for 1 hr. After washing with PBST, TMB was added for color development, and the OD value was detected at 450 nm.

[2] = target: T2, HSA (purchased from Sigma) (human, UniProt P02768 25-609); experiment: ELISA, VHH at 1 µg/mL on coated HSA, anti-his detection
T2 construct: Control coating for the fusion partner of PDL1-HSA; also called human serum albumin
T2 sequence (P02768 25-609 limits assumed): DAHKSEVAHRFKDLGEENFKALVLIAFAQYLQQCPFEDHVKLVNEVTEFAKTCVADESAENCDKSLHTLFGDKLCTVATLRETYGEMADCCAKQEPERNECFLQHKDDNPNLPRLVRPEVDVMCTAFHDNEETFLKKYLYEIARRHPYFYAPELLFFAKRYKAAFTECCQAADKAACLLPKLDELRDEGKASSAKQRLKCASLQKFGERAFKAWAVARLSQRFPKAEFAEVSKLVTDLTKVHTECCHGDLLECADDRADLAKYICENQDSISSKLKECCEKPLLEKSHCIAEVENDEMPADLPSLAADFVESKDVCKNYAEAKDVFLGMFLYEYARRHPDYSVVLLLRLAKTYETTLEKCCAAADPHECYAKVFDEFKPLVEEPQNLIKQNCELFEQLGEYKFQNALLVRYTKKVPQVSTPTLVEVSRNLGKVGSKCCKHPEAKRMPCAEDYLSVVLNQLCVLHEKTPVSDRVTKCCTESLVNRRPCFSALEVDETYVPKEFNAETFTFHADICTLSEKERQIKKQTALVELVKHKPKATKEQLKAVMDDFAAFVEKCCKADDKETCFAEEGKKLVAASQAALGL
Experimental: (§1) Human PDL1-HSA or HSA (purchased from Sigma) was coated onto a plate in an amount of 200 ng/well at 4° C., and blocked with 5% skimmed milk powder for 1 hr at room temperature. The purified anti-PDL1single-domain antibody with a histidine-tag was diluted to 1 μg/mL, added to the plate in an amount of 100 μL/well, and incubated at 37° C. for 1 hr. After washing three times with PBST, 100 μl/well of 1:5000 diluted mouse anti-his tag antibody (R&D Systems Inc.) was added, and the plate was incubated at room temperature for 1 hr. After washing with PBST, 100 μwell of 1:10000 diluted HRP-Goat anti mouse IgG antibody (Thermo Scientific) was added, and the plate was incubated at room temperature for 1 hr. After washing with PBST, a TMB developing solution (Beijing ComWin Biotech Co., Ltd) was added for color development, and the OD value was read at 450 nm.

[3] = target: T3, PDL1-HSA fusion protein composed of PDL1 extracellular domain and human serum albumin (human); experiment: ELISA, VHH at 1 µg/mL on coated PDL1-HSA, anti-his detection
T3 construct: The entry is the whole fusion: PD-L1 extracellular domain, linker, human serum albumin; also called Human PDL1-HSA; hPDL1-HSA
T3 sequence (chain, as listed by the source limits assumed): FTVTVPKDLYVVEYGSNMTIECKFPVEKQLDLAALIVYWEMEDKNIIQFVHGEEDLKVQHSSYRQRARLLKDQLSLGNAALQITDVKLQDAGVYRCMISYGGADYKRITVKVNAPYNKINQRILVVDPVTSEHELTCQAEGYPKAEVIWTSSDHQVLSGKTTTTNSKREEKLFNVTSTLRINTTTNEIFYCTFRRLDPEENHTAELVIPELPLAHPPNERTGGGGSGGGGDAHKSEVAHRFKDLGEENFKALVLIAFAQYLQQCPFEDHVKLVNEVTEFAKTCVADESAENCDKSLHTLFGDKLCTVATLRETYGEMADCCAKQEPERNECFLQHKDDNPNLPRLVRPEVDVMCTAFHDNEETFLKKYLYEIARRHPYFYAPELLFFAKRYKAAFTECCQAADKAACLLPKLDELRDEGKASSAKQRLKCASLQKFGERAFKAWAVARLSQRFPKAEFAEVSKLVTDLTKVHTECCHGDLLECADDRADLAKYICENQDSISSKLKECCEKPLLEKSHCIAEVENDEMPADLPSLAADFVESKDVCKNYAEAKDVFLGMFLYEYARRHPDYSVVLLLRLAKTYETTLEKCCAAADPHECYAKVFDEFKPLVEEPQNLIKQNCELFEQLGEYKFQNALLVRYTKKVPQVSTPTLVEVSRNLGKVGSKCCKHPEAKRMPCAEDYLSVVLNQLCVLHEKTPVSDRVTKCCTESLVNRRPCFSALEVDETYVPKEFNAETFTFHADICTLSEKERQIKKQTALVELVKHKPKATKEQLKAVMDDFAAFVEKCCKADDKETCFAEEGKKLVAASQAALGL
Experimental: as §1

[4] = target: T3, PDL1-HSA fusion protein composed of …; experiment: competitive ELISA on coated PDL1-HSA; competitor PD1-Fc (4.8 µg/mL, mixed in equal volume)
Experimental: PDL1-HSA was coated onto a plate overnight in an amount of 200 ng/well at 4° C., and blocked with 5% skimmed milk powder for 1 hr at room temperature. […] 100 μl was added per well and incubated at 37° C. for 1 hr. After washing three times with PBST, 100 μl of 1:20000 diluted HRP-Goat anti-Human IgG Fc(Novex) was added to each well, and incubated at room temperature for 1 hr. After washing three times with PBS, TMB substrate was added, and the plated was incubated at 37° C. After incubation for 5 min to develop color, 1 M sulfuric acid was added to stop the reaction. The OD value was read at 450 nm, and the half maximal inhibitory concentration (IC50 value) was calculated.

Row | Binder | binding result [1] | OD450 nm [2] | OD450 nm [3] | IC50 [4]
1 | B1 | no binding (tested: 1 µg/mL) | 0.076 OD450 nm | 2.15 OD450 nm | 0.0551 µg/mL
2 | B2 | no binding (tested: 1 µg/mL) | 0.073 OD450 nm | 2.08 OD450 nm | 0.0628 µg/mL
3 | B3 | no binding (tested: 1 µg/mL) | 0.074 OD450 nm | 2.01 OD450 nm | 0.0452 µg/mL
4 | B4 | no binding (tested: 1 µg/mL) | 0.064 OD450 nm | 2.02 OD450 nm | 0.0436 µg/mL
5 | B5 | no binding (tested: 1 µg/mL) | 0.081 OD450 nm | 2.05 OD450 nm | 0.0527 µg/mL
6 | B6 | no binding (tested: 1 µg/mL) | 0.082 OD450 nm | 2.05 OD450 nm | 0.0505 µg/mL
